Experimental data as given in US11833215B2, “CKIT antibody drug conjugates” (Novartis AG, priority 2014, dated 2023).
Positions count from the first letter of the chain named.

B1: 9P3: hybridoma derived anti-cKIT antibody, VH SEQ ID NO:9, VL SEQ ID NO:18 (antibody, listed as Homo sapiens, V domains shown)
VH: EVRLVESEGGLVQPRSSMKLSCTASGFTFSDYYMAWVRQVPEKGLEWVANINYDGSSTYYLDSLKSRFIISRDNAKNILYLQMSSLKSEDTATYYCARGDYYGTTYWYFDVWGTGTTVTVSS
VL: DIQMTQTTSSLSASLGDRVTISCRASQDISNYLNWYQQKPDGTVKLLIYYTSRLQSGVPSRFSGSGSGTDYSLTISNLEQEDIATYFCQQGKKLWSFGGGTKLEIKR
B2: NEG027: anti-cKIT antibody of Table 3, VH SEQ ID NO 64, VL SEQ ID NO 73 (antibody, listed as Homo sapiens, V domains shown)
VH: EVQLVESGGGLVQPGGSLRLSCAASGFTFSDYYMAWVRQAPGKGLEWVASINQNTGSTYYLDSVRGRFTISRDNAKNSLYLQMNSLRAEDTAVYYCARGDYYGTTYWYFDVWGQGTTVTVSS
VL: EIVMTQSPATLSLSPGERATLSCRASQDISNYLNWYQQKPGQAPRLLIYYTSRLQSGIPARFSGSGSGTDYTLTISSLEPEDFAVYYCQQGKKLWSFGGGTKVEIK
B3: NEG026: anti-cKIT antibody of Table 3, VH SEQ ID NO 46, VL SEQ ID NO 55 (antibody, listed as Homo sapiens, V domains shown)
VH: B2 VH with S50N, L61V, R65Q
VL: B2 VL
B4: NEG087: anti-cKIT antibody of Table 3, VH SEQ ID NO 118, VL SEQ ID NO 127 (antibody, listed as Homo sapiens, V domains shown)
VH: B2 VH
VL: DIQMTQSPSSLSASVGDRVTITCRASQSISSYLNWYQQKPGKAPKLLIYYTSRLQSGVPSRFSGSGSGTDFTLTISSLQPEDFATYYCQQGRRLWSFGGGTKVEIK
B5: NEG086: anti-cKIT antibody of Table 3, VH SEQ ID NO 100, VL SEQ ID NO 109 (antibody, listed as Homo sapiens, V domains shown)
VH: B2 VH with S50N, N54I, T55A, L61V, R65Q
VL: B4 VL

What was measured:
GIST cell lines = details: SR-1 as second therapeutic on Imatinib treated cells; cited from earlier work
Uke-1 cells = assay: ADCC activity in vitro (Calcein release, NK3.3 effector cells); assay type: cell-based; details: unconjugated IgG1, effector to target ratio 20 to 1
Description: The ability of the unconjugated anti-cKIT antibodies (NEG085, 20376) to mediate antibody dependent cellular cytotoxicity was determined versus Uke-1 cells (target cells; generously provided by Professor Walter Fiedler, University Hospital Eppendorf, Hamburg, Germany) in co-incubation with NK3.3 cells (killer cells or effector cells; kindly provided by Jacky Kornbluth from Saint Louis University). […] In order to calculate the antibody specific lysis of the target cells, a parallel incubation of target cells only without antibody or effector cells served as a baseline and negative control, whereas the positive control or maximal lysis or hundred percent specific lysis was determined by lysis of target cells only with a 1% Triton-X 100 solution. […] Following a co-incubation of target and effector cells, the microtiterplate was centrifuged and an aliquot of the supernatant fluid was transferred to another microtiterplate (96 well, flat-bottomed, black with clear bottom; (Corning Costar, catalog #3904, Tewksbury, MA) and the concentration of free Calcein in solution was determined with a fluorescence counter (Victor 3 ® multilabel counter, Perkin Elmer, Waltham, MA).

SCF binding to cKIT = SCF binding to cKIT (Homo sapiens, UniProt P10721); assay: competition assays using ELISA and FACS
rat cKIT = assay: SPR (Biacore) affinity measurement; assay type: binding; details: 25° C., 1:1 model
Description: (§1) Affinity of the antibodies to cKIT species orthologues and also to cKIT was determined using SPR technology using a Biacore® 2000 instrument (GE Healthcare, Pittsburgh, PA) and with CM5 sensor chips.
(§2) Briefly, HBS-P (0.01 M HEPES, pH 7.4, 0.15 M NaCl, 0.005% Surfactant P20) supplemented with 2% Odyssey® blocking buffer (Li-Cor Biosciences, Lincoln, NE) was used as the running buffer for all the experiments. The immobilization level and analyte interactions were measured by response unit (RU). Pilot experiments were performed to test and confirm the feasibility of the immobilization of the anti-human Fc antibody (Catalog number BR100839, GE Healthcare, Pittsburgh, PA) and the capture of the test antibodies.
(§3) For kinetic measurements, the experiments were performed in which the antibodies were captured to the sensor chip surface via the immobilized anti-human Fc antibody and the ability of the cKIT proteins to bind in free solution was determined. Briefly, 25 μg/ml of anti-human Fc antibody at pH 5 was immobilized on a CM5 sensor chip through amine coupling at flow rate of 5 μl/minute on all two flow cells to reach 10,500 RUs. 0.1-1 μg/ml of test antibodies were then injected at 10 μl/min for 1 minute. Captured levels of the antibodies were generally kept below 200 RUs. Subsequently, 3.125 −50 nM of cKIT receptor extracellular domains (ECD) were diluted in a 2-fold series and injected at a flow rate of 40 μl/min for 3 min over both reference and test flow cells. Table of tested ECDs is listed below (Table 6). Dissociation of the binding was followed for 10 min. After each injection cycle, the chip surface was regenerated with 3 M MgCl2 at 10 μl/min for 30 seconds.

human cKIT = target: T1, human cKIT (Homo sapiens, UniProt P10721); assay: SPR (Biacore) affinity measurement; assay type: binding; details: 25° C., 1:1 model
T1 construct: Human cKIT tr. variant 2 , residues 26-520-TAG; made in house; host or cells: HEK293 derived cell line 293FS, transient transfection
Description: as §1, §2, §3

mouse cKIT = target: T2, mouse cKIT (Mus musculus, UniProt P05532); assay: SPR (Biacore) affinity measurement; assay type: binding; details: 25° C., 1:1 model
T2 construct: cKIT receptor extracellular domains (ECD) were diluted in a 2-fold series
T2 sequence (P05532 25-527 limits assumed): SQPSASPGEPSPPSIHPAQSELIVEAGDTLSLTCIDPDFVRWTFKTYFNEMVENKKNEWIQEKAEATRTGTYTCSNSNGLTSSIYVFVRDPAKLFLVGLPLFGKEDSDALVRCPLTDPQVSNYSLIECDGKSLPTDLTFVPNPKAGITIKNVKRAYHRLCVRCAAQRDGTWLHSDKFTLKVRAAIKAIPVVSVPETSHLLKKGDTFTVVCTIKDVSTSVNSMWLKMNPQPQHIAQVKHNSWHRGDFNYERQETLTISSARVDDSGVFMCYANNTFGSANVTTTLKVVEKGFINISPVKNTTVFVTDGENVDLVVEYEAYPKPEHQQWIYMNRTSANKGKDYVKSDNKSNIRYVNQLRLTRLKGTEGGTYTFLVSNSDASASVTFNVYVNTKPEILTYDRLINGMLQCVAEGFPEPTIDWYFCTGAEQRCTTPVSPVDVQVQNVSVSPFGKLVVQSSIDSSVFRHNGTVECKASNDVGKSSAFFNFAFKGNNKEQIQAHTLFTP
Description: as §1, §2, §3

T1 sequence (P10721 with tags, fused parts or gaps isoform P10721-2): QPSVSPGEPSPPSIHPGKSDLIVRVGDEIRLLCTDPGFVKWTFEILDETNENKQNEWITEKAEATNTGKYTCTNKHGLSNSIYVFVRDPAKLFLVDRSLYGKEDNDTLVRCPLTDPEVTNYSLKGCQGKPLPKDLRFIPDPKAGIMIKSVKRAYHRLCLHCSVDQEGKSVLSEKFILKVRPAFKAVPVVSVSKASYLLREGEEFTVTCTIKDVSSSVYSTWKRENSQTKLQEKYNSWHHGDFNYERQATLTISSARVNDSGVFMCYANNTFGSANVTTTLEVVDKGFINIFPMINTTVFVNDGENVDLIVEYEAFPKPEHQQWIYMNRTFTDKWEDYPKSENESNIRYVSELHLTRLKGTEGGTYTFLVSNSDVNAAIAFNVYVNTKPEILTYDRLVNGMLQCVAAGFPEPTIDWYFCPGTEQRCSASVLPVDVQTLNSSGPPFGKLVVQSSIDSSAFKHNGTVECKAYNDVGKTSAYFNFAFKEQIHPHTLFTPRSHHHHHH
rat cKIT, sequence (as listed by the source): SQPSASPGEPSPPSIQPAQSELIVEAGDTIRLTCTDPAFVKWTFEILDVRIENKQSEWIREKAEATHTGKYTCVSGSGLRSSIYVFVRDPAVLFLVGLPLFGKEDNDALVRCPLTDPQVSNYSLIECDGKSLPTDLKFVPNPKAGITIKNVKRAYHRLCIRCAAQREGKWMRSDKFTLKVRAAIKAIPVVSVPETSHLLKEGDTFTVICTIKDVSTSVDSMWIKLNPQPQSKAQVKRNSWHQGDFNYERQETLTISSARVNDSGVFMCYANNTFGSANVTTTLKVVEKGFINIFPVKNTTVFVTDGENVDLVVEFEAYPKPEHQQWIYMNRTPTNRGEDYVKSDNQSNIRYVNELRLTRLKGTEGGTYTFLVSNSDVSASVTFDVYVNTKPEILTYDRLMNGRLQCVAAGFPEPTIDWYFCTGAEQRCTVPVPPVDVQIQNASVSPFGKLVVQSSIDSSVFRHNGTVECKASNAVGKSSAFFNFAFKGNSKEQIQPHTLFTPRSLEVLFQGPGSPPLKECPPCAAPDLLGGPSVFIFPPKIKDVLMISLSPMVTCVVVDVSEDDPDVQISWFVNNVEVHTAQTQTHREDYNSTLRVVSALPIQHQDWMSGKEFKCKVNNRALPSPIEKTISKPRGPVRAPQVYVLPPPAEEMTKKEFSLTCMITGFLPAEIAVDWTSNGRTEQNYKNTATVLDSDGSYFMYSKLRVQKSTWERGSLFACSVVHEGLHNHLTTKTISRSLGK
SCF binding to cKIT, sequence (P10721 26-976): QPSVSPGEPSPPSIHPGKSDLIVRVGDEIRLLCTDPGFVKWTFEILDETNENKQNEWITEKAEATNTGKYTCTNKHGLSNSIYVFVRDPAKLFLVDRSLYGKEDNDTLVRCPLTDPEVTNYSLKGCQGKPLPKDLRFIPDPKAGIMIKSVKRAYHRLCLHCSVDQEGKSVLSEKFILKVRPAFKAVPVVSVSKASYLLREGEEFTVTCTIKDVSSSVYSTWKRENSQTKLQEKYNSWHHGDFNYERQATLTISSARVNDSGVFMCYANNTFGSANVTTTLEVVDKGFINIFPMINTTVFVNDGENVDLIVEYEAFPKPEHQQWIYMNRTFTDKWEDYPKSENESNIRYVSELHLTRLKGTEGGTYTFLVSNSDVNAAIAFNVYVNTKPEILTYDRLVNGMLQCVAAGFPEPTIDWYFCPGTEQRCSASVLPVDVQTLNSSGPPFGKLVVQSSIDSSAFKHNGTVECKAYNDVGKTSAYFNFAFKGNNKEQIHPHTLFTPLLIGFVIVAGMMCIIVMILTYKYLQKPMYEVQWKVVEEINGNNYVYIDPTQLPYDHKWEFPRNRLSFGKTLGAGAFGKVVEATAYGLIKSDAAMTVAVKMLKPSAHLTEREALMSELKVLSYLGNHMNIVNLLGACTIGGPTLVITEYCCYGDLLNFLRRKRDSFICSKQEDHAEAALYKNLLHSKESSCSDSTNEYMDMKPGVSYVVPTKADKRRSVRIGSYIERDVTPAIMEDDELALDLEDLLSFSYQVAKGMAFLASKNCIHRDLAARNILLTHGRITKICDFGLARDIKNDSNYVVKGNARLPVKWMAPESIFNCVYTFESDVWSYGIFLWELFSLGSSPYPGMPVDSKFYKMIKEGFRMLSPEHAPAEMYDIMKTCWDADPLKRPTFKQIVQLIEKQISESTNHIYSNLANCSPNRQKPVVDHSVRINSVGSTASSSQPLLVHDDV

Molecule	proliferation of GIST cells (GIST cell lines)	ADCC killing of target cells (Uke-1 cells)	blocking of SCF binding to cKIT (SCF binding to cKIT)	Affinity to rat cKIT (nM) (rat cKIT)	Affinity human cKIT (nM) (human cKIT)	Affinity mouse cKIT (nM) (mouse cKIT)
Cc1ccc(NC(=O)c2ccc(CN3CCN(C)CC3)cc2)cc1Nc1nccc(-c2cccnc2)n1 [imatinib]	significantly reduce proliferation					
MabCampath® [reference compound]		mediated ADCC killing				
B1			partial blocking	Not reactive	nanomolar level	Not reactive
B2				Not reactive	nanomolar level	Not reactive
B3				Not reactive		Not reactive
B4				Not reactive	nanomolar level	Not reactive
B5				Not reactive	nanomolar level	Not reactive
